Substitutions are numbered along the chain they refer to. Numbers in names are those of the source.
B1: S415K: S415K mutant of SEQ ID NO:14 (protein)
chain: MPPTPATATGAAAAAVTPEHAARSFPRVVRVNPRSDRFPVLSFHHVELWCADAASAAGRFSFALGAPLAARSDLSTGNSAHASLLLRSGALAFLFTAPYAPPPQEAATAATASIPSFSADAARTFAAAHGLAVRSVGVRVADAAEAFRVSVAGGARPAFAPADLGHGFGLAEVELYGDVVLRFVSYPDETDLPFLPGFERVSSPGAVDYGLTRFDHVVGNVPEMAPVIDYMKGFLGFHEFAEFTAEDVGTTESGLNSVVLANNSEAVLLPLNEPVHGTKRRSQIQTYLEYHGGPGVQHIALASNDVLRTLREMRARTPMGGFEFMAPPQAKYYEGVRRIAGDVLSEEQIKECQELGVLVDRDDQGVLLQIFTKPVGDRPTFFLEMIQRIGCMEKDEVGQEYQKGGCGGFGKGNFKELFKSIEDYEKSLEVKQSVVAQKS
modifications: mutant HPPD polypeptide
B2: S415Q: S415Q mutant of SEQ ID NO:14 (protein)
chain: B1 chain with K415Q
modifications: mutant HPPD polypeptide
B3: I421L: I421L mutant of SEQ ID NO:14 (protein)
chain: B1 chain with K415S, I421L
modifications: mutant HPPD polypeptide
B4: A326S: A326S mutant of SEQ ID NO:14 (protein)
chain: B1 chain with A326S, K415S
modifications: mutant HPPD polypeptide
B5: L269M: L269M mutant of SEQ ID NO:14 (protein)
chain: B1 chain with L269M, K415S
modifications: mutant HPPD polypeptide
B6: L269F: L269F mutant of SEQ ID NO:14 (protein)
chain: B1 chain with L269F, K415S
modifications: mutant HPPD polypeptide
B7: S420A: S420A mutant of SEQ ID NO:14 (protein)
chain: B1 chain with K415S, S420A
modifications: mutant HPPD polypeptide
B8: A326R: A326R mutant of HPPD SEQ ID NO:14 (protein)
chain: B1 chain with A326R, K415S
modifications: mutant HPPD polypeptide
B9: K411T: K411T mutant of HPPD SEQ ID NO:14 (protein)
chain: B1 chain with K411T, K415S
modifications: mutant HPPD polypeptide
B10: L358M: L358M mutant of HPPD SEQ ID NO:14 (apparently the change of SEQ ID NO:24) (protein)
chain: B1 chain with L358M, K415S
modifications: mutant HPPD polypeptide
B11: M325L: M325L mutant of HPPD SEQ ID NO:14 (protein)
chain: B1 chain with M325L, K415S
modifications: mutant HPPD polypeptide

Tests used:
[1] = catalytic activity and herbicide resistance of mutants of SEQ ID NO:14 in extracts; type: biochemical, Avena sativa
Text: These further mutations can all be optionally combined with the resistance conferring mutations to produce catalytically active variants of HPPD herbicide resistant enzymes of the current invention.

[2] = Km and kcat of expressed HPPDs (HPLC/UV quantitation of homogentisate); type: biochemical, Avena sativa; settings: for V217I, L271I, L271V, V258M, A326R estimated from initial rates in cell extracts, pH 7.0, 25° C., 120 μM HPP
Description: The assay solution was transferred to Chromacol 03-CVG HPLC vials, sealed and the amount of homogentisate formed in a 40 μl aliquot determined by injection onto a reverse phase Aqua C18 5μ 75×4.6 mm HPLC column running 5.5% acetonitrile 0.1% TFA (Buffer A) at 1.5 ml/min. The column was eluted at 1.5 ml/minute using a 2 minute wash in buffer A, followed by a 2 minute wash in a 30/70 mixture of buffer A and 100% Acetonitrile, and a further 3.5 minute wash in buffer A. The elution of homogentisate was monitored by UV at 292 nm and the amount formed in each reaction quantified by comparison with a standard calibration curve.
Km and Vmax values were determined (for example FIG. 1) using a non linear least squares fit using Grafit 4™ software (Erithacus Software, Middlesex, UK). Kcat values were determined by dividing the maximum rate, Vmax expressed in nmol/second by the number of nmoles of HPPD enzyme (based on the concentration determined by active-site titration).
Experiments were carried out as described for Table 4. ‘Sulc’ denotes sulcotrione and ‘nd’ means ‘no data’. For V217I, L271I, L271V, V258M and A326R, the relative values of kcat were estimated from comparisons of the initial rates in cell extracts of similarly prepared and expressed HPPDs in conventional enzyme activity assays at pH 7.0, 25° C. and at a substrate concentration of 120 μM HPP.

| Molecule | catalytic activity and resistance to sulcotrione relative to control, unmutated SEQ ID NO:14 [1] | Rate: kcat relative to non-mutated HPPD SEQ ID NO:14 [2] |
| --- | --- | --- |
| B1 | neutral mutations |  |
| B2 | neutral mutations |  |
| B3 | neutral mutations |  |
| B4 | neutral mutations |  |
| B5 | neutral mutations |  |
| B6 | neutral mutations |  |
| B7 | neutral mutations |  |
| B8 |  | 1.2 |
| B9 |  | 1 |
| B10 |  | 0.7 |
| B11 |  | 1.2 |

Source: patent US9175305B2, “Mutant hydroxyphenylpyruvate dioxygenase polypeptides and methods of use” (Syngenta Participations AG, priority 2009, dated 2015)
